From US12065471B2, “B*44 restricted peptides for use in immunotherapy against cancers and related methods” (Immatics Biotechnologies GmbH, priority 2018, dated 2024)

What follows are substances tested against HLA-B*44:05 (Homo sapiens, UniProt P01889, A223V/A65T/A93T/A95T/D201E/D98Y/E176V/E187L/E204Q/E69K/G107R/H137Y/K202T/L105A/L119I/N104T/N87E/Q56L/Q94N/R106L/R155S/R180D/S101N/S121R/S35A/S48T/T118I/V36M/W191S/Y91S) (assay: MHC binding assay (UV-ligand exchange, β2m ELISA, peptide exchange yield)). Conditions: binding to HLA-B*44:05.
In short: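 Binding is read as exchange yield, i.e. stabilized complex remaining after UV cleavage of a photolabile ligand in the presence of the candidate peptide. Streptavidin-captured monomers (100-fold dilution) are probed with HRP-anti-β2m, 1h at 37° C, TMB, A450. Standard curve: HLA-A*02:01/MLA-001 monomers at 15-500 ng/ml.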

Substance	Peptide exchange (MHC class I binding score, peptide exchange yield)
201 (MEILWKTLT; listed as Homo sapiens) [compound 201]	++++ (>75% = ++++)
432 (TEENGFWYL; listed as Homo sapiens) [compound 432]	++++ (>75% = ++++)
413 (TELEPGLTY; listed as Homo sapiens) [compound 413]	+++ (>50 = +++)
232 (YEIRAEAL; listed as Homo sapiens) [compound 232]	++ (>20% = ++)
316 (RLWPEPENW; listed as Homo sapiens) [compound 316]	++ (>20% = ++)
350 (EEMLENVSL; listed as Homo sapiens) [compound 350]	+++ (>50 = +++)
131 (RESHLTEIRQY; listed as Homo sapiens) [compound 131]	++ (>20% = ++)
340 (GELAPSHGL; listed as Homo sapiens) [compound 340]	+++ (>50 = +++)
444 (SESALQTVI; listed as Homo sapiens) [compound 444]	+++ (>50 = +++)
295 (QELEQEVISL; listed as Homo sapiens) [compound 295]	+++ (>50 = +++)
391 (TESIGAQIY; listed as Homo sapiens) [compound 391]	+++ (>50 = +++)
243 (VEQINISQDW; listed as Homo sapiens) [compound 243]	++++ (>75% = ++++)
95 (AAFEDAQGHIW; listed as Homo sapiens) [compound 95]	++++ (>75% = ++++)
179 (EEHIFSAF; listed as Homo sapiens) [compound 179]	++ (>20% = ++)
238 (VEDDNYKLSL; listed as Homo sapiens) [compound 238]	+++ (>50 = +++)
150 (SEVFHVSEA; listed as Homo sapiens) [compound 150]	++ (>20% = ++)
3 (DEIFTNDRRW; listed as Homo sapiens) [compound 3]	++ (>20% = ++)
27 (GETCVRITY; listed as Homo sapiens) [compound 27]	+++ (>50 = +++)
113 (MEFKTLNKN; listed as Homo sapiens) [compound 113]	++ (>20% = ++)
335 (SETPTLQGL; listed as Homo sapiens) [compound 335]	+++ (>50 = +++)
177 (LEEPMPFFY; listed as Homo sapiens) [compound 177]	+ (>10% = +)
166 (EEQDFINNRY; listed as Homo sapiens) [compound 166]	++++ (>75% = ++++)
147 (RMLSFQQMTW; listed as Homo sapiens) [compound 147]	++ (>20% = ++)
261 (QEWDPQKTEKY; listed as Homo sapiens) [compound 261]	+++ (>50 = +++)
137 (EKGLISAF; listed as Homo sapiens) [compound 137]	++ (>20% = ++)
183 (KEMQVTISQQL; listed as Homo sapiens) [compound 183]	++++ (>75% = ++++)

Substance	Peptide exchange (MHC class I binding score, peptide exchange yield)
448 (ALSPVPSHW; listed as Homo sapiens) [compound 448]	+++ (>50 = +++)
351 (EEGRVYVY; listed as Homo sapiens) [compound 351]	++ (>20% = ++)
267 (VELEVPQL; listed as Homo sapiens) [compound 267]	++ (>20% = ++)
381 (QELMAFSFAGL; listed as Homo sapiens) [compound 381]	++++ (>75% = ++++)
144 (IEAYLERIGY; listed as Homo sapiens) [compound 144]	+++ (>50 = +++)
126 (SEASQSPQY; listed as Homo sapiens) [compound 126]	+++ (>50 = +++)
412 (EESFDSKFY; listed as Homo sapiens) [compound 412]	+++ (>50 = +++)
163 (AEDEDGKIVGY; listed as Homo sapiens) [compound 163]	++ (>20% = ++)
26 (EESSSPVDEY; listed as Homo sapiens) [compound 26]	++ (>20% = ++)
438 (AELDSKILAL; listed as Homo sapiens) [compound 438]	+++ (>50 = +++)
263 (AEQLRGFNA; listed as Homo sapiens) [compound 263]	+++ (>50 = +++)
404 (AEREQVIKL; listed as Homo sapiens) [compound 404]	++++ (>75% = ++++)
442 (KESDAGKYY; listed as Homo sapiens) [compound 442]	+++ (>50 = +++)
275 (GEQPPEGQW; listed as Homo sapiens) [compound 275]	+++ (>50 = +++)
84 (AETSYVKVLEY; listed as Homo sapiens) [compound 84]	+++ (>50 = +++)
278 (DQVTVFLHF; listed as Homo sapiens) [compound 278]	+ (>10% = +)
123 (DEINHQSL; listed as Homo sapiens) [compound 123]	++ (>20% = ++)
96 (MDELEEGESY; listed as Homo sapiens) [compound 96]	+ (>10% = +)
436 (AEADLSYTWDF; listed as Homo sapiens) [compound 436]	+++ (>50 = +++)
94 (SLAELIAKDW; listed as Homo sapiens) [compound 94]	++ (>20% = ++)
214 (SVNPIIYGF; listed as Homo sapiens) [compound 214]	++ (>20% = ++)
158 (VEEERYTGQW; listed as Homo sapiens) [compound 158]	+++ (>50 = +++)
195 (MEIKGTVTEF; listed as Homo sapiens) [compound 195]	+++ (>50 = +++)
180 (EEHSSKLQTSL; listed as Homo sapiens) [compound 180]	++++ (>75% = ++++)
187 (TEQALRLSV; listed as Homo sapiens) [compound 187]	++++ (>75% = ++++)
